The values below come from patent US20250186614A1, “COMPACT DRUG RESPONSIVE DOMAINS FOR REGULATION OF FUNCTION/ABUNDANCE AND DELIVERY OF POLYPEPTIDE PAYLOADS” (OBSIDIAN THERAPEUTICS, INC., priority 2022, published 2025).

Read-outs that look alike come from different tables or passages of the source.

Format in all cases: cell-based
One experiment relates to HEK-293T cells. The experiment can be described thus: Tacrolimus (FK506) response of FKBP13-AcGFP-mCherry constructs transiently transfected into HEK-293T cells, flow cytometry. The conditions noted are these: for AcGFP stabilization / fluorescence signal in response to FK506: 0, 1 or 10 μM FK506, 24 hours; for Fold Change: tacrolimus response of FKBP13 DRD-AcGFP construct, Table 3. From the text:
The DRD in FKBP13-039 was a wildtype (WT) FKBP13 (i.e., a 98 amino acid fragment of SEQ ID NO: 1). […] The FKBP13-043, FKBP13-044, and FKBP13-045 constructs included DRD-genic mutations D90G, M54A and M96V, respectively, and three binding site mutations (Q72R, Q84E, and A117H).
On the technique in general: A flow cytometer gives signals particle by particle.

In experiment [1] the test system is Jurkat cells. The experiment in a line: Sirolimus (rapamycin) dose response of FKBP13 constructs stably transduced into Jurkat cells, flow cytometry. The settings on record: rapamycin, Table 14; for Rapamycin FC: fold change. How it is done: Normalized EC50 values were calculated from the mCherry normalized GFP MFI values, which accounted for any differences in mCherry intensity between samples.

Experiment [2] is described as follows: Example 4: dose response of FKBP constructs 160-255, Ec50, Ec90 and fold change (raw and normalized to mCherry). The conditions noted are these: for FC (fold change): fold change during initial analysis. How it is done:
Additional experiments were performed for constructs FKBP-160-292.

Experiment [3] deals with Jurkat cells. The experiment can be described thus: Tacrolimus dose response of FKBP13-AcGFP-mCherry constructs stably transduced into Jurkat cells, GFP MFI by flow cytometry. The conditions noted are these: tacrolimus, Table 14; for Tacrolimus FC: fold change. In a few lines:
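GFP geometric MFI was read by flow cytometry in mCherry+ cells and curve-fitted against tacrolimus dose. Cells were Jurkat E6-1, lentivirus-transduced with FKBP13-AcGFP-mCherry fusion constructs until 10-25% mCherry-positive on day 5 post-transduction.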

The mark [4] stands for this setting: normalized, read-out: Rapamycin EC90 (Norm).
Setting [5] is: FKBP constructs 160-255, not normalized, read-out: EC90.
Where [6] appears, read: normalized to mCherry, read-out: EC90 (Norm).
Setting [7] is: read-out: Tacrolimus EC90 (Norm), normalized.

B1: FKBP-043: FKBP13 DRD Q72R, Q84E, A117H, D90G; SEQ ID NO: 6 (protein)
chain: HCPIKSRKGDVLHMHYTGKLEDGTEFDSSLPRNQPFVFSLGTGEVIKGWGQGLLGMCEGEKRKLVIPSELGYGERGHPPKIPGGATLVFEVELLKIER
modifications: Description of sequence: FKBP13-AcGFP-mCherry Fusion; Construct Name: FKBP-043; FKBP13 DRD in Construct : FKBP13 (mutated to match FKBP12 active site - Q72R Q84E A117H) (DRD - D90G)
With B1, in the experiment with HEK-293T cells (FIG. 1B), the “AcGFP stabilization / fluorescence signal in response to FK506” value is reported as “increased more effectively” and the DRD activity result is listed as “had DRD activity”. The Fold Change with HEK-293T cells is 26.5.

B2: FKBP-039: FKBP13 (WT) fragment DRD-AcGFP-mCherry; SEQ ID NO: 2 (protein)
chain: HCPIKSRKGDVLHMHYTGKLEDGTEFDSSLPQNQPFVFSLGTGQVIKGWDQGLLGMCEGEKRKLVIPSELGYGERGAPPKIPGGATLVFEVELLKIER
modifications: Description of sequence: FKBP13-AcGFP-mCherry Fusion; Construct Name: FKBP-039; FKBP13 DRD in Construct : FKBP13 (WT)
As for B2, the Fold Change with HEK-293T cells stood at 4.9.

B3: FKBP-182 (protein)
chain: HCPIKSRKGDVLHAHYTGKLEDGTEFDSSLPRNQPFVFSLGTGERIKGWDQGLLGWCEGEKRKLVIPSELGYGERGWPPKIPGGATLVFEVELLKIER
modifications: Description of sequence: Construct Name: FKBP-182; Mutation(s): Q72R Q84E A117W V85R DRD M54A M96W
As usually defined, the EC90 is the concentration at which the effect reaches the 90% level. B3: the EC90 in the experiment with Jurkat cells [1] (read-out: Rapamycin EC90) was determined as 3.84 µM; in the experiment on Jurkat cells [1] (setting [4]), 4.11 µM; in experiment [2] (setting [5]) it was 0.819 µM; in experiment [2] (setting [6]), 0.928 µM; in the experiment with Jurkat cells [3] (setting [7]), 0.928 µM; in the experiment with Jurkat cells [3] (read-out: Tacrolimus EC90), 0.819 µM. In addition, the “Rapamycin FC” value in the experiment on Jurkat cells [1] turned out to be 21.5. Further, the “FC (fold change)” value in experiment [2] is given as 64.9. For the same molecule, in the experiment on Jurkat cells [3], the “Tacrolimus FC” value came to 64.9.

B4: FKBP-188 (protein)
chain: HCPIKSRKGDVLHAHYTGKLEDGTEFDSSLPRNQPFVSSLGTGERIKGWDQGLLGMCEGEKRKLVIPSELGYGERGWPPKIPGGATLVFEVELLKIER
modifications: Description of sequence: Construct Name: FKBP-188; Mutation(s): Q72R Q84E A117W V85R DRD M54A F78S
With B4, the EC90 amounted to 5.41 µM in the experiment with Jurkat cells [1] (read-out: Rapamycin EC90); 5.83 µM in the experiment on Jurkat cells [1] (setting [4]); 16.6 µM in experiment [2] (setting [5]); 20.8 µM in experiment [2] (setting [6]); 20.8 µM in the experiment with Jurkat cells [3] (setting [7]); 16.6 µM in the experiment on Jurkat cells [3] (read-out: Tacrolimus EC90). For the same molecule, the “Rapamycin FC” value in the experiment on Jurkat cells [1] was determined as 2.6. Also, in experiment [2], the “FC (fold change)” value was 20.5. Moreover, the “Tacrolimus FC” value in the experiment on Jurkat cells [3] is 20.5.

B5: FKBP-186 (protein)
chain: HCPIKSRKGDVLHAHYTGKLEDGTEFDSSLPRNQPFVFSLGTGERIKGWDQGLLGMCEGEKRKLVIPSELGYGEREWPPKIPGGATLVFEVELLKIER
modifications: Description of sequence: Construct Name: FKBP-186; Mutation(s): Q72R Q84E A117W V85R DRD M54A G116E
As to B5, the EC90 in the experiment on Jurkat cells [1] (read-out: Rapamycin EC90) came to 5.87 µM; in the experiment with Jurkat cells [1] (setting [4]), 5.22 µM; in experiment [2] (setting [5]) it was 17.9 µM; in experiment [2] (setting [6]), 21 µM; in the experiment with Jurkat cells [3] (setting [7]), 21 µM; in the experiment with Jurkat cells [3] (read-out: Tacrolimus EC90), 17.9 µM. Further, the “Rapamycin FC” value in the experiment with Jurkat cells [1] is on record as 1.7. Besides, the “FC (fold change)” value in experiment [2] was found to be 19.0. Moreover, in the experiment with Jurkat cells [3], the “Tacrolimus FC” value is 19.

B6: FKBP-189 (protein)
chain: HCPIKSRKGDVLGAHYTGKLEDGTEFDSSLPLNQPFVFSLGTGERIKGWDQGLLGMCEGEKRKLVIPSELGYGERGWPPKIPGGATLVFEVELLKIER
modifications: Description of sequence: Construct Name: FKBP-189; Mutation(s): Q72R Q84E A117W V85R DRD M54A H53G R72L
Turning to B6, the EC90 amounted to 5.47 µM with Jurkat cells [1] (read-out: Rapamycin EC90); 5.53 µM in the experiment on Jurkat cells [1] (setting [4]); 25.8 µM in experiment [2] (setting [5]); 30.1 µM in experiment [2] (setting [6]); 30.1 µM in the experiment on Jurkat cells [3] (setting [7]); 25.8 µM in the experiment with Jurkat cells [3] (read-out: Tacrolimus EC90). Further, the “Rapamycin FC” value in the experiment on Jurkat cells [1] amounted to 2.5. Besides, in experiment [2], the “FC (fold change)” value is 23.0. For the same molecule, in the experiment on Jurkat cells [3], the “Tacrolimus FC” value is given as 23.

B7: FKBP-187 (protein)
chain: HCPIKSRKGDVLHAHYTGKLEDGTEFDSSLPRNQPFVFSGGTGERIKGWDQGLLGMCEGEKRKLVIPSELGYGERGWPPKIPGGATLVFEVELLKIER
modifications: Description of sequence: Construct Name: FKBP-187; Mutation(s): Q72R Q84E A117W V85R DRD M54A L80G
For the molecule B7, the EC90 was determined as 5.31 µM in the experiment with Jurkat cells [1] (read-out: Rapamycin EC90); 5.66 µM in the experiment on Jurkat cells [1] (setting [4]); 14.5 µM in experiment [2] (setting [5]); 21.3 µM in experiment [2] (setting [6]); 21.3 µM in the experiment with Jurkat cells [3] (setting [7]); 14.5 µM in the experiment on Jurkat cells [3] (read-out: Tacrolimus EC90). Further, in the experiment on Jurkat cells [1], the “Rapamycin FC” value stood at 2.3. Further, the “FC (fold change)” value in experiment [2] is given as 24.0. In the experiment with Jurkat cells [3], the “Tacrolimus FC” value came out at 24.

B8: FKBP-040: FKBP13 DRD D90G; SEQ ID NO: 3 (protein)
chain: HCPIKSRKGDVLHMHYTGKLEDGTEFDSSLPQNQPFVFSLGTGQVIKGWGQGLLGMCEGEKRKLVIPSELGYGERGAPPKIPGGATLVFEVELLKIER
modifications: Description of sequence: FKBP13-AcGFP-mCherry Fusion; Construct Name: FKBP-040; FKBP13 DRD in Construct : FKBP13 (DRD - D90G)
As for B8, in the experiment on HEK-293T cells, the Fold Change is listed as 1.

B9: FKBP-185 (protein)
chain: HCPIKSRKGAVLHAHYIGKLEDGTEFDSSLPRNQPFVFSLGTGERIKGWDQGLLGMCEGEKRKLVIPSELGYGERGWPPKIPGGATLVFEVELLKLER
modifications: Description of sequence: Construct Name: FKBP-185; Mutation(s): Q72R Q84E A117W V85R DRD M54A D50L T57I I136L
Take B9: the EC90 with Jurkat cells [1] (read-out: Rapamycin EC90) stood at 5.34 µM; with Jurkat cells [1] (setting [4]), 22 µM; in experiment [2] (setting [5]) it was 22.1 µM; in experiment [2] (setting [6]), 23.4 µM; in the experiment on Jurkat cells [3] (setting [7]), 23.4 µM; in the experiment with Jurkat cells [3] (read-out: Tacrolimus EC90), 22.1 µM. Moreover, in the experiment with Jurkat cells [1], the “Rapamycin FC” value amounted to 2. Also, the “FC (fold change)” value in experiment [2] came to 40.2. Further, in the experiment on Jurkat cells [3], the “Tacrolimus FC” value was found to be 40.2.

B10: FKBP-045: FKBP13 DRD Q72R, Q84E, A117H, M96V; SEQ ID NO: 8 (protein)
chain: HCPIKSRKGDVLHMHYTGKLEDGTEFDSSLPRNQPFVFSLGTGEVIKGWDQGLLGVCEGEKRKLVIPSELGYGERGHPPKIPGGATLVFEVELLKIER
modifications: Description of sequence: FKBP13-AcGFP-mCherry Fusion; Construct Name: FKBP-045; FKBP13 DRD in Construct : FKBP13 (mutated to match FKBP12 active site - Q72R Q84E A117H) (DRD - M96V)
B10: in the experiment with HEK-293T cells (FIG. 1B), the “AcGFP stabilization / fluorescence signal in response to FK506” value is “increased more effectively”. For the same molecule, the Fold Change in the experiment on HEK-293T cells is listed as 23.2.
